Measurements from the Immune Epitope Database (IEDB).
pKd: −log10 of the molar value.

How the values were obtained:
HLA-B*46:01 [1] = experiment: IEDB peptide-MHC binding, purified MHC/direct/fluorescence; filed as Kd, often an IC50 or EC50 that approximates it; ≥ and ≤ were set here for values at or beyond the usual limits of such assays
HLA-B*07:02 = experiment: as above
HLA-A*03:01 [2] = experiment: as above
HLA-B*15:01 [3] = experiment: as above
HLA-A*24:02 = experiment: as above
HLA-B*27:05 = experiment: as above
HLA-A*01:01 = experiment: as above
HLA-A*11:01 = experiment: as above
HLA-B*58:01 = experiment: as above
HLA-B*40:01 = experiment: as above
HLA-B*44:02 = experiment: as above
HLA-A*02:01 [4] = experiment: as above
HLA-A*26:01 [5] = experiment: as above; conditions: source organism: Influenza A virus (A/shorebird/Delaware/141/2002(H9N9))
HLA-A*69:01 [6] = experiment: as above
HLA-B*08:01 = experiment: as above
HLA-A*31:01 [7] = experiment: as above; conditions: source organism: Influenza A virus (A/turkey/Minnesota/511/1978(H9N2))
HLA-A*02:11 = experiment: IEDB peptide-MHC binding, purified MHC/competitive/fluorescence; filed as Kd, often an IC50 or EC50 that approximates it; ≥ and ≤ were set here for values at or beyond the usual limits of such assays
HLA-A*26:01 [8] = experiment: as above
HLA-A*24:03 = experiment: as above
HLA-B*46:01 [9] = experiment: as above
HLA-B*51:01 = experiment: as above
HLA-A*02:03 = experiment: as above
HLA-B*57:01 = experiment: as above
HLA-A*03:01 [10] = experiment: as above
HLA-B*15:01 [11] = experiment: as above
HLA-A*69:01 [12] = experiment: as above
HLA-B*27:03 = experiment: as above
HLA-A*02:19 = experiment: as above
HLA-A*68:02 = experiment: as above
HLA-A*02:12 = experiment: as above
HLA-B*15:17 = experiment: as above
HLA-A*02:16 = experiment: as above
HLA-A*02:01 [13] = experiment: as above
HLA-A*23:01 = experiment: as above
HLA-A*29:02 = experiment: as above
HLA-B*39:01 = experiment: as above
HLA-B*18:01 = experiment: as above
HLA-A*31:01 [14] = experiment: as above; conditions: source organism: Entamoeba histolytica HM-1:IMSS
HLA-B*08:02 = experiment: IEDB peptide-MHC binding, purified MHC/direct/fluorescence; filed as Kd, often an IC50 or EC50 that approximates it; ≥ and ≤ were set here for values at or beyond the usual limits of such assays; conditions: source organism: Influenza A virus(A/swine/Shandong/fNY/2003(H9N2))
[15] = source organism: Escherichia coli O157:H7
[16] = source organism: Influenza A virus (A/turkey/Minnesota/511/1978(H9N2))
[17] = source organism: Influenza A virus (A/Puerto Rico/8/34/Mount Sinai(H1N1))
[18] = source organism: Bacillus cereus G9241
[19] = source organism: Entamoeba histolytica HM-1:IMSS
[20] = source organism: Giardia lamblia ATCC 50803
[21] = source organism: Influenza A virus (A/egret/Hong Kong/757.3/2002(H5N1))
[22] = source organism: Influenza A virus (A/red knot/Delaware/2561/1987(H10N5))

## PLKVKDIPF
HLA-B*46:01 [1]; [15]
  pKd: ≤ 4.70
HLA-B*07:02; [15]
  pKd: ≤ 4.70
HLA-A*03:01 [2]; [15]
  pKd: ≤ 4.70
HLA-B*15:01 [3]; [15]
  pKd: 6.71
HLA-A*24:02; [15]
  pKd: ≤ 4.70
HLA-B*27:05; [15]
  pKd: ≤ 4.70
HLA-A*01:01; [15]
  pKd: ≤ 4.70
HLA-A*11:01; [15]
  pKd: ≤ 4.70
HLA-B*58:01; [15]
  pKd: ≤ 4.70
HLA-B*40:01; [15]
  pKd: ≤ 4.70
HLA-B*44:02; [15]
  pKd: ≤ 4.70
HLA-A*02:01 [4]; [15]
  pKd: ≤ 4.70

## DLLENLQAY
HLA-A*26:01 [5]
  pKd: 6.94
HLA-B*07:02; [16]
  pKd: ≤ 4.70
HLA-A*03:01 [2]; [16]
  pKd: ≤ 4.70
HLA-B*15:01 [3]; [17]
  pKd: 5.57
HLA-A*24:02; [16]
  pKd: ≤ 4.70
HLA-A*69:01 [6]; [16]
  pKd: ≤ 4.70
HLA-B*27:05; [16]
  pKd: ≤ 4.70
HLA-B*08:01; [16]
  pKd: ≤ 4.70
HLA-A*31:01 [7]
  pKd: ≤ 4.70
HLA-A*01:01; [16]
  pKd: ≤ 4.70
HLA-A*11:01; [16]
  pKd: ≤ 4.70
HLA-B*58:01; [16]
  pKd: ≤ 4.70
HLA-B*40:01; [16]
  pKd: ≤ 4.70
HLA-B*44:02; [16]
  pKd: ≤ 4.70
HLA-A*02:01 [4]; [16]
  pKd: ≤ 4.70

## DEEAINLFH
HLA-A*02:11; [18]
  pKd: ≤ 4.70
HLA-A*26:01 [8]; [18]
  pKd: ≤ 4.70
HLA-A*24:03; [18]
  pKd: ≤ 4.70
HLA-B*46:01 [9]; [18]
  pKd: ≤ 4.70
HLA-B*51:01; [18]
  pKd: ≤ 4.70
HLA-A*02:03; [18]
  pKd: ≤ 4.70
HLA-B*57:01; [18]
  pKd: ≤ 4.70
HLA-A*03:01 [10]; [18]
  pKd: ≤ 4.70
HLA-B*15:01 [11]; [18]
  pKd: ≤ 4.70
HLA-A*69:01 [12]; [18]
  pKd: ≤ 4.70
HLA-B*27:03; [18]
  pKd: ≤ 4.70
HLA-A*02:19; [18]
  pKd: ≤ 4.70
HLA-A*68:02; [18]
  pKd: ≤ 4.70
HLA-A*02:12; [18]
  pKd: ≤ 4.70
HLA-B*15:17; [18]
  pKd: ≤ 4.70
HLA-A*02:16; [18]
  pKd: ≤ 4.70
HLA-A*02:01 [13]; [18]
  pKd: ≤ 4.70
HLA-A*23:01; [18]
  pKd: ≤ 4.70
HLA-A*29:02; [18]
  pKd: ≤ 4.70
HLA-B*39:01; [18]
  pKd: ≤ 4.70
HLA-B*18:01; [18]
  pKd: 6.16

## RTFDRFFEE
HLA-A*02:11; [19]
  pKd: ≤ 4.70
HLA-A*26:01 [8]; [19]
  pKd: ≤ 4.70
HLA-A*24:03; [19]
  pKd: ≤ 4.70
HLA-B*46:01 [9]; [19]
  pKd: ≤ 4.70
HLA-B*51:01; [19]
  pKd: ≤ 4.70
HLA-A*02:03; [19]
  pKd: ≤ 4.70
HLA-B*57:01; [19]
  pKd: ≤ 4.70
HLA-A*03:01 [10]; [19]
  pKd: ≤ 4.70
HLA-B*15:01 [11]; [19]
  pKd: ≤ 4.70
HLA-A*69:01 [12]; [19]
  pKd: ≤ 4.70
HLA-B*27:03; [19]
  pKd: ≤ 4.70
HLA-A*02:19; [19]
  pKd: ≤ 4.70
HLA-A*31:01 [14]
  pKd: 6.50
HLA-A*68:02; [19]
  pKd: ≤ 4.70
HLA-A*02:12; [19]
  pKd: ≤ 4.70
HLA-A*02:16; [19]
  pKd: ≤ 4.70
HLA-A*02:01 [13]; [19]
  pKd: ≤ 4.70
HLA-A*23:01; [19]
  pKd: ≤ 4.70
HLA-A*29:02; [19]
  pKd: ≤ 4.70
HLA-B*39:01; [19]
  pKd: ≤ 4.70
HLA-B*18:01; [19]
  pKd: ≤ 4.70

## LLDDGWAGE
HLA-A*02:11; [20]
  pKd: ≤ 4.70
HLA-A*26:01 [8]; [20]
  pKd: ≤ 4.70
HLA-A*24:03; [20]
  pKd: ≤ 4.70
HLA-B*46:01 [9]; [20]
  pKd: ≤ 4.70
HLA-B*51:01; [20]
  pKd: ≤ 4.70
HLA-A*02:03; [20]
  pKd: ≤ 4.70
HLA-B*57:01; [20]
  pKd: ≤ 4.70
HLA-A*03:01 [10]; [20]
  pKd: ≤ 4.70
HLA-B*15:01 [11]; [20]
  pKd: ≤ 4.70
HLA-A*69:01 [12]; [20]
  pKd: ≤ 4.70
HLA-B*27:03; [20]
  pKd: ≤ 4.70
HLA-A*02:19; [20]
  pKd: ≤ 4.70
HLA-A*68:02; [20]
  pKd: ≤ 4.70
HLA-A*02:12; [20]
  pKd: 5.22
HLA-B*15:17; [20]
  pKd: ≤ 4.70
HLA-A*02:01 [13]; [20]
  pKd: ≤ 4.70
HLA-A*23:01; [20]
  pKd: ≤ 4.70
HLA-A*29:02; [20]
  pKd: ≤ 4.70
HLA-B*39:01; [20]
  pKd: ≤ 4.70
HLA-B*18:01; [20]
  pKd: ≤ 4.70

## EEFTMVGRR
HLA-B*46:01 [1]; [21]
  pKd: ≤ 4.70
HLA-B*07:02; [21]
  pKd: ≤ 4.70
HLA-A*03:01 [2]; [17]
  pKd: 5.99
HLA-B*15:01 [3]; [21]
  pKd: ≤ 4.70
HLA-A*24:02; [21]
  pKd: ≤ 4.70
HLA-A*69:01 [6]; [21]
  pKd: ≤ 4.70
HLA-B*27:05; [21]
  pKd: ≤ 4.70
HLA-B*08:01; [21]
  pKd: ≤ 4.70
HLA-A*01:01; [21]
  pKd: ≤ 4.70
HLA-B*58:01; [21]
  pKd: ≤ 4.70
HLA-B*44:02; [21]
  pKd: ≤ 4.70
HLA-B*08:02
  pKd: ≤ 4.70

## VMTDGPANK
HLA-A*02:11; [22]
  pKd: 6.70
HLA-A*26:01 [8]; [22]
  pKd: ≤ 4.70
HLA-A*24:03; [22]
  pKd: ≤ 4.70
HLA-B*46:01 [9]; [22]
  pKd: ≤ 4.70
HLA-B*51:01; [22]
  pKd: ≤ 4.70
HLA-A*02:03; [22]
  pKd: ≤ 4.70
HLA-B*57:01; [22]
  pKd: ≤ 4.70
HLA-B*15:01 [11]; [22]
  pKd: ≤ 4.70
HLA-B*27:03; [22]
  pKd: ≤ 4.70
HLA-A*02:19; [22]
  pKd: ≤ 4.70
HLA-A*02:12; [22]
  pKd: ≤ 4.70
HLA-B*15:17; [22]
  pKd: ≤ 4.70
HLA-A*02:01 [13]; [22]
  pKd: ≤ 4.70
HLA-A*23:01; [22]
  pKd: ≤ 4.70
HLA-A*29:02; [22]
  pKd: ≤ 4.70
HLA-B*39:01; [22]
  pKd: ≤ 4.70
HLA-B*18:01; [22]
  pKd: ≤ 4.70
